We go through one substance from publication PMC10934500, “Exploring the Anti-Diabetic Potential of Quercetagitrin through Dual Inhibition of PTPN6 and PTPN9” (Nutrients, 2024).

The data set deals with Cc1cc(=O)oc2c(F)c(OP(=O)(O)O)c(F)cc12. Put plainly: Michaelis-Menten kinetics (KM) with purified enzyme, fluorescence. Type of data set: biochemical, Homo sapiens.

In the case of PTPN6 (Homo sapiens), the Michaelis constant (Km) was determined as 187.5 µM, the Vmax is 10.8 µM/min, the kcat came to 30 s⁻¹ and the kcat/Km was determined as 162000 M⁻¹ s⁻¹.

Usually Km stands for the concentration of substrate that gives half-maximal velocity. A word on the Vmax: it is the rate approached at saturating substrate. By kcat is commonly meant the number of substrate molecules converted per active site and unit of time at saturation. As a reminder, the kcat/Km is the turnover number divided by the Michaelis constant.
